In paper PMC9967645, “OAT3 Participates in Drug–Drug Interaction between Bentysrepinine and Entecavir through Interactions with M8—A Metabolite of Bentysrepinine—In Rats and Humans In Vitro” (Molecules, 2023):

Substrate: CN(C)CCOc1ccc(CC(NC(=O)c2ccccc2)C(=O)O)cc1
Experiment: cells, lysate or membranes named
Conditions: other: hOAT3-HEK293 cells, Eadie–Hofstee plot, 2 to 1000 µM, 5 min; pH 7.4
Experimental: The hOAT1-HEK293, hOAT3-HEK293 and mock cells were cultured in Dulbecco modified Eagle medium (DMEM) containing 10% fetal bovine serum (FBS) and 1% penicillin/streptomycin in an atmosphere of 5% CO2 air at 37 °C. The HEK293 cells were plated on 24-well plates at a density of 5 × 10^5 cells/well. […] Uptake assay was initiated by adding 1 mL of the transporter buffer containing Y101, M8, ETV or probe substrate. Following incubation with gentle shaking, the uptake was terminated at designated time by removing the transporter buffer and washing cells three times with 1 mL of ice-cold HBSS. Next, substrates of Y101, M8, ETV, PAH and ES in cell monolayer were released by lysing the cells with 0.3 mL of 0.1% Triton X-100 for 2 h and determined by liquid chromatography–tandem mass spectrometry (LC–MS/MS). In the time-course uptake assay, Y101 (2.0 µM) and M8 (10 µM) in the presence or absence of PRO (100 µM) were measured in hOAT1-HEK293, hOAT3-HEK293 and mock cells. The concentration-dependent uptake of M8 was determined in hOAT3-HEK293 cells, and incubation time (5 min) was optimized. […] The uptake of ETV (10 µM) with or without Y101 or M8 was also measured in hOAT1-HEK293 and hOAT3-HEK293 cells, respectively. […] Protein concentrations were measured by the bicinchoninic acid procedure (Solarbio, Beijing, China) using bovine serum albumin as the standard. […]

B1: hOAT3 (Homo sapiens) (protein)
chain: MTFSEILDRVGSMGHFQFLHVAILGLPILNMANHNLLQIFTAATPVHHCRPPHNASTGPWVLPMGPNGKPERCLRFVHPPNASLPNDTQRAMEPCLDGWVYNSTKDSIVTEWDLVCNSNKLKEMAQSIFMAGILIGGLVLGDLSDRFGRRPILTCSYLLLAASGSGAAFSPTFPIYMVFRFLCGFGISGITLSTVILNVEWVPTRMRAIMSTALGYCYTFGQFILPGLAYAIPQWRWLQLTVSIPFFVFFLSSWWTPESIRWLVLSGKSSKALKILRRVAVFNGKKEEGERLSLEELKLNLQKEISLAKAKYTASDLFRIPMLRRMTFCLSLAWFATGFAYYSLAMGVEEFGVNLYILQIIFGGVDVPAKFITILSLSYLGRHTTQAAALLLAGGAILALTFVPLDLQTVRTVLAVFGKGCLSSSFSCLFLYTSELYPTVIRQTGMGVSNLWTRVGSMVSPLVKITGEVQPFIPNIIYGITALLGGSAALFLPETLNQPLPETIEDLENWSLRAKKPKQEPEVEKASQRIPLQPHGPGLGSS
**Q.** Which results are given for B1?
**A.** Km: 367 µM; Vmax: 414 pmol/min/mg protein
